Results taken from US20250382359A1 (BYOMASS, published 2025).

T1: GDNF (UniProt P39905 78-211)
T1 sequence (looked up): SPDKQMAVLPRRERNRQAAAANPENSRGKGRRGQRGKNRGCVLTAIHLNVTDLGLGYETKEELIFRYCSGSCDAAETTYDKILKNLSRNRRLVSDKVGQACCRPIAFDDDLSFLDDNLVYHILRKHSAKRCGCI

T2: Human BMP10 (human, UniProt O95393 317-424)
T2 sequence (looked up): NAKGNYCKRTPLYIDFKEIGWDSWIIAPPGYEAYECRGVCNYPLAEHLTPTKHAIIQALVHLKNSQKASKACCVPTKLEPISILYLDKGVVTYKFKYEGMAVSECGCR

T3: Human Activin A Fc (human, UniProt P08476 311-426)
T3 construct: not shown: Fc part
T3 sequence (looked up): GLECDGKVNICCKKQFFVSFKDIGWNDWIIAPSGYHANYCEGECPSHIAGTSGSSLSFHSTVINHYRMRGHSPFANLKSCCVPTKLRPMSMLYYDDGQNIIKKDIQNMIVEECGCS

T4: Human Activin B (human, UniProt P09529 293-407)
T4 sequence (looked up): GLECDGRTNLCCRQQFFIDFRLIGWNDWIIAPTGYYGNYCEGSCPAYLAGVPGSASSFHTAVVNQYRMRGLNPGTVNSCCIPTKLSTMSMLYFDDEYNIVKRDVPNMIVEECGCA

T5: GDF15 (ligand used in the GFRAL/RET cell assays) (UniProt Q99988 197-308, limits assumed)
T5 sequence (looked up): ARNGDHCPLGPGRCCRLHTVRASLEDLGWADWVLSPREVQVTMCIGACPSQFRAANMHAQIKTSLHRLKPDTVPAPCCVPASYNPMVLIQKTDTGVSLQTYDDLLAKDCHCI

T6: Human GDF15 Fc (human, UniProt Q99988 195-308, limits assumed, biotinylated (EZ-Link Sulfo-NHS-Biotinylation Kit) in the SPR assay)
T6 construct: also called human GDF15-Fc fusion; biotinylated Human GDF15 Fc; not shown: Fc part
T6 sequence: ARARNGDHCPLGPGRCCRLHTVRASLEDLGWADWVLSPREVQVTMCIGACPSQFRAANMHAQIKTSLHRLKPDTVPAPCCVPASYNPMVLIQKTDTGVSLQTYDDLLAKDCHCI

T7: Cyno GDF15 Fc (cyno, UniProt G7PWZ3 193-308, limits assumed)
T7 construct: also called cyno GDF15-Fc fusion; not shown: Fc part
T7 sequence: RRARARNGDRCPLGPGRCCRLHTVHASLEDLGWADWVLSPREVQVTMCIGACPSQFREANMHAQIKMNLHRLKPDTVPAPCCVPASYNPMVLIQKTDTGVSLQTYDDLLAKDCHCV

T8: Mouse GDF15 Fc (mouse, UniProt Q9Z0J7 189-303, limits assumed)
T8 construct: also called mouse GDF15-Fc fusion; not shown: Fc part
T8 sequence (looked up): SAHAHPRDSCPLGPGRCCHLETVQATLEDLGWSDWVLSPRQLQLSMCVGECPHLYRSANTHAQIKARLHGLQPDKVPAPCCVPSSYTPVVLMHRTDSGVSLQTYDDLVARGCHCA

T9: Human BMP9 (human, UniProt Q9UK05 320-429)
T9 sequence (looked up): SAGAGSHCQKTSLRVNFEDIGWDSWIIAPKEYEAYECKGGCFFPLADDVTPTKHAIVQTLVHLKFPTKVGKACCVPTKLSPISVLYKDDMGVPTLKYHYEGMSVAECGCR

T10: GDF10 (UniProt P55107 369-478)
T10 sequence (looked up): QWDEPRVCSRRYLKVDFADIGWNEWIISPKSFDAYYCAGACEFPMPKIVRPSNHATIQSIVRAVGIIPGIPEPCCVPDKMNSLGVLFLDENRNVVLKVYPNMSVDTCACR


Assays:
GDNF = molecular target: T1, GDNF; assay: BLI Octet; IgG on sensor
GDF11 = molecular target: T11, GDF11 (UniProt O95390 299-407); assay: BLI Octet; IgG on sensor
T11 construct: Also used as ligand in the Activin 2B receptor/SMAD reporter assay
T11 sequence (O95390 299-407 limits assumed): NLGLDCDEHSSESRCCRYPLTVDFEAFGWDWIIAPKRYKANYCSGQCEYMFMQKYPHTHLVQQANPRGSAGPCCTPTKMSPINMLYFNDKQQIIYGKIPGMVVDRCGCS

GDF8 = GDF8 (UniProt O14793 267-375); assay: BLI Octet; IgG on sensor
Human BMP10 = molecular target: T2, Human BMP10; assay: BLI Octet; IgG on sensor
Human Activin A Fc = molecular target: T3, Human Activin A Fc; assay: BLI Octet; IgG on sensor
Human Activin B = molecular target: T4, Human Activin B; assay: BLI Octet; IgG on sensor
[1] = molecular target: T5, GDF15 (ligand used in the GFRAL/RET …); assay: cell-based or functional assay
Human GDF15 Fc [2] = molecular target: T6, Human GDF15 Fc; assay: BLI Octet; IgG on sensor, 100 nM antigen (avid)
Protocol: Briefly, ForteBio affinity measurements were performed by loading IgGs on-line onto AHC sensors. Sensors were equilibrated off-line in assay buffer for 30 min and then monitored on-line for 60 seconds for baseline establishment. Sensors with loaded IgGs were exposed to 100 nM antigen for 3 minutes, and afterwards were transferred to assay buffer for 3 min for off-rate measurement. All kinetics were analyzed using the 1:1 binding model.

Cyno GDF15 Fc = molecular target: T7, Cyno GDF15 Fc; assay: BLI Octet; antigen on sensor, 100 nM Fab (monovalent)
Mouse GDF15 Fc = molecular target: T8, Mouse GDF15 Fc; assay: as above
Human GDF15 Fc [3] = molecular target: T6, Human GDF15 Fc; assay: SPR Biacore 8K; biotinylated antigen captured, Fab analyte
Protocol: Kinetic analysis was conducted at 25° C. in HBS-EP+running buffer (10 mM HEPES pH 7.4, 150 mM NaCl, 3 mM EDTA, 0.05% Surfactant P20) using a Biacore 8K optical biosensor (Cytiva, Marlborough, MA). The sample compartment was maintained at 10° C. for the duration of the experiment. The Biacore 8K can analyze up to 8 separate interactions in a single cycle.
Each experiment cycle began with an injection (300 s at 2 μL/min) overflow cells 1 and 2 of a 1:100 solution of biotin CAPture reagent (Cytiva) in running buffer. This was followed by an injection (45 s at 10.0 μL/min) of biotinylated human GDF15 (5 nM) overflow cell 2. […] The dissociation of the antibodies were monitored for 3420 s. Finally, an injection (120 s at 10 μL/min) of regeneration solution (6 M Guanidine-HCl in 0.25 M NaOH) overflow cells 1 and 2 prepared the sensor surface for another cycle. Several blank buffer samples were injected (300 s at 30 μL/min) overflow cells 1 and 2 throughout the duration of the experiment and used for reference surface subtraction—each were monitored for the same amount of dissociation time (3420 s) and regenerated under the same conditions as those for the Fab sample injections.

Human BMP9 = molecular target: T9, Human BMP9; assay: BLI Octet; IgG on sensor
GDF10 = molecular target: T10, GDF10; assay: BLI Octet; IgG on sensor

binding result (GDNF) | binding result (GDF11) | binding result (GDF8) | binding result (Human BMP10) | binding result (Human Activin A Fc) | binding result (Human Activin B) | GDF15-GFRAL RET pERK IC50 (pM) [1] [pM] | GDF15-GFRAL-RET Luciferase IC50 (pM) [1] [pM] | Kd (Human GDF15 Fc [2]) [nM] | Kd (Cyno GDF15 Fc) [nM] | Kd (Mouse GDF15 Fc) [nM] | GDF15 GFRAL RET pERK Fab IC50 pM [1] [pM] | Kd (Human GDF15 Fc [3]) [nM] | koff (Human GDF15 Fc [3]) [s⁻¹] | kon (Human GDF15 Fc [3]) [M⁻¹ s⁻¹] | binding result (Human BMP9) | binding result (GDF10) | Binder
no binding (tested: 100 nM) | no binding (tested: 100 nM) | no binding (tested: 100 nM) | no binding (tested: 100 nM) | no binding (tested: 100 nM) | no binding (tested: 100 nM) | 34.9 | 91.3 | 0.244 |  |  |  |  |  |  |  |  | GDF15 antibody agent Clone F, IgG (antibody, V domains shown) VH: QVQLVQSGAEVKKPGSSVKVSCKASGGTFGGYAISWVRQAPGQGLEWMGGIIPPYATANYAQKFQGRVTITADESTSTAYMELSSLRSEDTAVYYCARGVGTTHLDVWGQGTMVTVSS VL: not shown
 |  |  |  |  |  |  |  |  | 0.553 | 26.1 | 11.2 |  |  |  |  |  | GDF15 antibody agent Clone F, Fab (Fab, V domains shown, Fab; CH1 and CL of the Fab not specified; also called Fab of Clone F) VH: QVQLVQSGAEVKKPGSSVKVSCKASGGTFGGYAISWVRQAPGQGLEWMGGIIPPYATANYAQKFQGRVTITADESTSTAYMELSSLRSEDTAVYYCARGVGTTHLDVWGQGTMVTVSS VL: not shown
 |  |  |  |  |  |  |  |  | 0.474 |  | 33.2 |  |  |  |  |  | GDF15 antibody agent Clone G, Fab (Fab, V domains shown, Fab; CH1 and CL of the Fab not specified; also called Fab of Clone G) VH: QVQLVQSGAEVKKPGSSVKVSCKASGGTFQGYAISWARQAPGQGLEWMGGIIPPYATANYAQKFQGRVTITADESTSTAYMELSSLRSEDTAVYYCARGVGELHLDVWGQGTMVTVSS VL: not shown
 |  |  |  |  |  |  |  |  |  | 2.56 | 322 | 0.545 | 0.00318 | 5.84e+06 |  |  | GDF15 antibody agent Clone N, Fab (Fab, V domains shown, Fab; CH1 and CL of the Fab not specified; also called Fab of Clone N) VH: QVQLVQSGAEVKKPGASVKVSCKASGYTFTDYGIFWVRQAPGQGLEWMGWITAYSGDTHYAQKLQGRVTMTTDTSTSTAYMELRSLRSDDTAVYYCVRDTQYGGSPYWGQGTLVTVSS VL: EIVMTQSPATLSVSPGERATLSCRASQSVSSNLAWYQQKPGQAPRLLIYGASTRATGIPARFSGSGSGTEFTLTISSLQSEDFAVYYCQQYNNWPITFGGGTKVEIK
 | no binding (tested: 100 nM) | no binding (tested: 100 nM) | no binding (tested: 100 nM) | no binding (tested: 100 nM) | no binding (tested: 100 nM) | 34.5 | 79.3 | 0.262 |  |  |  |  |  |  | no binding (tested: 100 nM) | no binding (tested: 100 nM) | GDF15 antibody agent Clone I, IgG (antibody, V domains shown) VH: QVQLVQSGAEVKKPGASVKVSCKASGYTFTDEGINWVRQAPGQGLEWMGWITAYSGDTVYAQKLQGRVTMTTDTSTSTAYMELRSLRSDDTAVYYCARGPGQYADVDVWGQGTMVTVSS VL: DIQMTQSPSSVSASVGDRVTITCRASQGISSWLAWYQQKPGKAPKLLIYAASSLQSGVPSRFSGSGSGTDFTLTISSLQPEDFATYYCQQANSFPITFGGGTKVEIKR
 | no binding (tested: 100 nM) | no binding (tested: 100 nM) | no binding (tested: 100 nM) | no binding (tested: 100 nM) | no binding (tested: 100 nM) | 30.3 | 110 | 0.276 |  |  |  |  |  |  | no binding (tested: 100 nM) | no binding (tested: 100 nM) | GDF15 antibody agent Clone J, IgG (antibody, V domains shown) VH: QVQLVQSGAEVKKPGASVKVSCKASGYTFTSYGINWVRQAPGQGLEWMGWIDAYSGSTNYAQKLQGRVTMTTDTSTSTAYMELRSLRSDDTAVYYCARGPGQYADVDVWGQGTMVTVSS VL: DIQMTQSPSSVSASVGDRVTITCRASQGISSWLAWYQQKPGKAPKLLIYAASSLQSGVPSRFSGSGSGTDFTLTISSLQPEDFATYYCQQANSFPITFGGGTKVEIKR
